B1: CD207 (parent)
chain: MTVEKEAPDAHFTVDKQNISLWPR
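Also: lentivirally expressed fusions sorted by FACS into six bins by GFP to DsRed ratio, PSI derived from sequencing read proportions per bin multiplied by bin number.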

The variants in this data set derive from B1. The experiment in a line: protein stability index of a GFP-peptide fusion (GPS, HEK-293T) (PSI 1-6); higher = more stable. The settings on record: c terminus: a fixed tail appended.
Consider MTVEKEAPDAHFTVDKQNISLWPD [R24D], for which the protein stability index stood at 4.53.
Take MTVEKEAPDAHFTVDKQNISLWPT [R24T]: the protein stability index came out at 3.63.
Then MTVEKEAPDAHFTVDKQNISLWPS [R24S], with 3.57; and MTVEKEAPDAHFTVDKQNISLWPW [R24W], with 2.78; and MTVEKEAPDAHFTVDKQNISLWPA [R24A], with 3.98.
Then MTVEKEAPDAHFTVDKQNISLWPF [R24F], with 3.42; and MTVEKEAPDAHFTVDKQNISLWPC [R24C], with 3.16.
On to MTVEKEAPDAHFTVDKQNISLWPL [R24L], for which the protein stability index worked out at 2.95.
Take MTVEKEAPDAHFTVDKQNISLWPG [R24G]: the protein stability index was 3.72.
Then MTVEKEAPDAHFTVDKQNISLWPI [R24I], with 2.9; and MTVEKEAPDAHFTVDKQNISLWPE [R24E], with 4.83; and MTVEKEAPDAHFTVDKQNISLWPH [R24H], with 3.69.
Turning to MTVEKEAPDAHFTVDKQNISLWPQ [R24Q], the protein stability index worked out at 3.97.
With MTVEKEAPDAHFTVDKQNISLWPV [R24V], the protein stability index is 3.07.
Take MTVEKEAPDAHFTVDKQNISLWPP [R24P]: the protein stability index was determined as 3.28.
Consider MTVEKEAPDAHFTVDKQNISLWPM [R24M], for which the protein stability index is 2.24.
On to MTVEKEAPDAHFTVDKQNISLWPN [R24N], for which the protein stability index came out at 4.12.
Then MTVEKEAPDAHFTVDKQNISLWPK [R24K], with 3.87.
Then MTVEKEAPDAHFTVDKQNISLWPY [R24Y], with 2.83.
For the variant MTVEKEAPDAHFTVDKQNILLWPR [S20L], the protein stability index stood at 2.48.
Take MTVEKEAPDAHFTVDKQNIKLWPR [S20K]: the protein stability index amounted to 3.55.
Then MTVEKEAPDAHFTVDKQNIPLWPR [S20P], with 3.3.
Then MTVEKEAPDAHFTVDKQNIYLWPR [S20Y], with 2.69.
As to MTVEKEAPDAHFTVDKQNIWLWPR [S20W], the protein stability index was 2.96.
In the case of MTVEKEAPDAHFTVDKQNIALWPR [S20A], the protein stability index stood at 3.3.
Regarding MTVEKEAPDAHFTVDKQNICLWPR [S20C], the protein stability index amounted to 3.39.
MTVEKEAPDAHFTVDKQNIELWPR [S20E]: the protein stability index came out at 3.33.
For MTVEKEAPDAHFTVDKQNIDLWPR [S20D], the protein stability index was 4.04.
Then MTVEKEAPDAHFTVDKQNIFLWPR [S20F], with 3.04; and MTVEKEAPDAHFTVDKQNINLWPR [S20N], with 3.07.
On to MTVEKEAPDAHFTVDKQNIILWPR [S20I], for which the protein stability index worked out at 2.66.
Then MTVEKEAPDAHFTVDKQNIMLWPR [S20M], with 2.81; and MTVEKEAPDAHFTVDKQNIHLWPR [S20H], with 3.2.
Turning to MTVEKEAPDAHFTVDKQNIVLWPR [S20V], the protein stability index came out at 2.71.
Then MTVEKEAPDAHFTVDKQNITLWPR [S20T], with 3.43; and MTVEKEAPDAHFTVDKQNIGLWPR [S20G], with 3.29.
MTVEKEAPDAHFTVDKQNIQLWPR [S20Q]: the protein stability index came to 3.1.
With MTVEKEAPDAHFTVDKQNIRLWPR [S20R], the protein stability index worked out at 3.3.
As to MTVEKEAPDAHFTVDKQRISLWPR [N18R], the protein stability index is 3.14.
On to MTVEKEAPDAHFTVDKQDISLWPR [N18D], for which the protein stability index was found to be 3.21.
Then MTVEKEAPDAHFTVDKQKISLWPR [N18K], with 3.4.
MTVEKEAPDAHFTVDKQTISLWPR [N18T]: the protein stability index turned out to be 3.62.
Then MTVEKEAPDAHFTVDKQGISLWPR [N18G], with 3.
Regarding MTVEKEAPDAHFTVDKQFISLWPR [N18F], the protein stability index came to 3.
For MTVEKEAPDAHFTVDKQAISLWPR [N18A], the protein stability index is 4.24.
Take MTVEKEAPDAHFTVDKQMISLWPR [N18M]: the protein stability index is 3.5.
In the case of MTVEKEAPDAHFTVDKQIISLWPR [N18I], the protein stability index was 1.95.
With MTVEKEAPDAHFTVDKQHISLWPR [N18H], the protein stability index came out at 3.46.
Then MTVEKEAPDAHFTVDKQLISLWPR [N18L], with 2.88; and MTVEKEAPDAHFTVDKQQISLWPR [N18Q], with 2.86; and MTVEKEAPDAHFTVDKQCISLWPR [N18C], with 2.44.
Then MTVEKEAPDAHFTVDKQVISLWPR [N18V], with 2.29; and MTVEKEAPDAHFTVDKQWISLWPR [N18W], with 2.05; and MTVEKEAPDAHFTVDKQPISLWPR [N18P], with 3.39.
On to MTVEKEAPDAHFTVDKQYISLWPR [N18Y], for which the protein stability index came out at 2.97.
For MTVEKEAPDAHFTVDKQEISLWPR [N18E], the protein stability index came to 3.34.
Consider MTVEKEAPDAHFTVDKQSISLWPR [N18S], for which the protein stability index amounted to 3.56.
Take MTVEKEAPDAHFTVDKQNISRWPR [L21R]: the protein stability index came to 3.7.
Consider MTVEKEAPDAHFTVDKQNISCWPR [L21C], for which the protein stability index was found to be 3.64.
As for MTVEKEAPDAHFTVDKQNISKWPR [L21K], the protein stability index was 3.72.
Regarding MTVEKEAPDAHFTVDKQNISYWPR [L21Y], the protein stability index came out at 3.39.
As to MTVEKEAPDAHFTVDKQNISDWPR [L21D], the protein stability index worked out at 4.22.
Consider MTVEKEAPDAHFTVDKQNISTWPR [L21T], for which the protein stability index amounted to 3.01.
Then MTVEKEAPDAHFTVDKQNISFWPR [L21F], with 3.25; and MTVEKEAPDAHFTVDKQNISPWPR [L21P], with 4.11.
MTVEKEAPDAHFTVDKQNISVWPR [L21V]: the protein stability index was 3.09.
Regarding MTVEKEAPDAHFTVDKQNISIWPR [L21I], the protein stability index was 3.79.
Then MTVEKEAPDAHFTVDKQNISWWPR [L21W], with 3.12; and MTVEKEAPDAHFTVDKQNISMWPR [L21M], with 3.81.
Then MTVEKEAPDAHFTVDKQNISSWPR [L21S], with 3.53.
Regarding MTVEKEAPDAHFTVDKQNISNWPR [L21N], the protein stability index stood at 3.43.
Then MTVEKEAPDAHFTVDKQNISQWPR [L21Q], with 3.85; and MTVEKEAPDAHFTVDKQNISHWPR [L21H], with 4.06; and MTVEKEAPDAHFTVDKQNISLWQR [P23Q], with 3.14.
In the case of MTVEKEAPDAHFTVDKQNISLWRR [P23R], the protein stability index amounted to 3.43.
In the case of MTVEKEAPDAHFTVDKQNISLWNR [P23N], the protein stability index amounted to 3.82.
Turning to MTVEKEAPDAHFTVDKQNISLWFR [P23F], the protein stability index stood at 2.71.
MTVEKEAPDAHFTVDKQNISLWHR [P23H]: the protein stability index is 2.9.
Consider MTVEKEAPDAHFTVDKQNISLWIR [P23I], for which the protein stability index is 2.91.
On to MTVEKEAPDAHFTVDKQNISLWCR [P23C], for which the protein stability index came to 2.69.
MTVEKEAPDAHFTVDKQNISLWER [P23E]: the protein stability index amounted to 3.84.
On to MTVEKEAPDAHFTVDKQNISLWTR [P23T], for which the protein stability index amounted to 2.93.
Regarding MTVEKEAPDAHFTVDKQNISLWYR [P23Y], the protein stability index turned out to be 2.62.
As to MTVEKEAPDAHFTVDKQNISLWLR [P23L], the protein stability index came out at 2.62.
On to MTVEKEAPDAHFTVDKQNISLWMR [P23M], for which the protein stability index amounted to 2.84.
Then MTVEKEAPDAHFTVDKQNISLWDR [P23D], with 4.51.
Consider MTVEKEAPDAHFTVDKQNISLWGR [P23G], for which the protein stability index came to 3.
For the variant MTVEKEAPDAHFTVDKQNISLWSR [P23S], the protein stability index amounted to 2.64.
Consider MTVEKEAPDAHFTVDKQNISLWWR [P23W], for which the protein stability index worked out at 2.52.
For MTVEKEAPDAHFTVDKQNISLWAR [P23A], the protein stability index was 3.39.
Take MTVEKEAPDAHFTVDKQNISLWKR [P23K]: the protein stability index was determined as 3.69.
On to MTVEKEAPDAHFTVDKNNISLWPR [Q17N], for which the protein stability index stood at 2.97.
Turning to MTVEKEAPDAHFTVDKINISLWPR [Q17I], the protein stability index is 2.48.
Then MTVEKEAPDAHFTVDKKNISLWPR [Q17K], with 3.36.

These data come from the supplement of paper PMC10567573.
